The text below walks through data of article PMC4505066 (2015).

First the molecules themselves.
B1: wild type GSI motif peptide (CPRPLKEGSITQGTPLKYDTG), SMRT amino acids 1450-1469 with an amino-terminal cysteine [modified: BODIPY-TMR coupled to the N-terminal cysteine; BODIPY-TMR coupled to the N-terminal cysteine] [not stated] / HDAC4 … (parent complex)
chain 1: CPRPLKEGSITQGTPLKYDTG
chain 2: TKPRFTTGLVYDTLMLKHQCTCGSSSSHPEHAGRIQSIWSRLQETGLRGKCECIRGRKATLEELQTVHSEAHTLLYGTNPLNRQKLDSKKLLGSLASVFVRLPCGGVGVDSDTIWNEVHSAGAARLAVGCVVELVFKVATGELKNGFAVVRPPGHHAEESTPMGFCYFNSVAVAAKLLQQRLSVSKILIVDWDVHHGNGTQQAFYSDPSVLYMSLHRYDDGNFFPGSGAPDEVGTGPGVGFNVNMAFTGGLDPPMGDAEYLAAFRTVVMPIASEFAPDVVLVSSGFDAVEGHPTPLGGYNLSARCFGYLTKQLMGLAGGRIVLALEGGHDLTAICDASEACVSALLGNELDPLPEKVLQQRPNANAVRSMEKVMEIHSKYWRCLQRTTSTAGRSLIEAQTCENEEAETVT

In the experiment the parent is B1. In words: fluorescence anisotropy. A general note: Fluorescence polarisation rises when a labelled molecule tumbles more slowly, as on binding a larger partner.
For chain 1 CPRPLKEGSITQGTALKYDTG [chain 1 P15A], the Kd is 47 µM.

Consider chain 1 CPRPLKEGSIVQGTPLKYDTG [chain 1 T11V], for which the Kd is 16.9 µM.

For chain 1 CPRPLKEGSIAQGTPLKYDTG [chain 1 T11A], the equilibrium dissociation constant (Kd) was found to be 14.4 µM.

Regarding chain 1 CPRPLKEGSITAGTPLKYDTG [chain 1 Q12A], the Kd came out at 5.47 µM.

For chain 1 CPRPLKEGSITEGTPLKYDTG [chain 1 Q12E], the Kd turned out to be 17.7 µM.

The Kd is the equilibrium constant for the complex coming apart.
